Abundance fitness data for 35 variants are collected here from the Human Domainome abundance scans (Beltran et al. 2025).

B1: Ankyrin-3, residues 4094 to 4171; numbered along this chain, Q12955 (parent)
chain: MAIVADHLGLSWTELARELNFSVDEINQIRVENPNSLISQSFMLLKKWVTRDGKNATTDALTSVLTKINRIDIVTLLE

± gives the uncertainty stated by the source.

Variants of B1 are the subject of this data set. In words: abundance fitness (aPCA) (normalised: wild type 0, dead -1); higher = more abundant; growth selection in yeast, the domain comes from the species named. The note with it: Homo sapiens.
As for MAIVADHLGDSWTELARELNFSVDEINQIRVENPNSLISQSFMLLKKWVTRDGKNATTDALTSVLTKINRIDIVTLLE [L10D], the abundance fitness is -0.011 ± 0.11.

In the case of MAIVADHLGGSWTELARELNFSVDEINQIRVENPNSLISQSFMLLKKWVTRDGKNATTDALTSVLTKINRIDIVTLLE [L10G], the abundance fitness was -0.043 ± 0.052.

Take MAIVADHLGFSWTELARELNFSVDEINQIRVENPNSLISQSFMLLKKWVTRDGKNATTDALTSVLTKINRIDIVTLLE [L10F]: the abundance fitness was determined as 0.032 ± 0.062.

Take MAIVADHLGCSWTELARELNFSVDEINQIRVENPNSLISQSFMLLKKWVTRDGKNATTDALTSVLTKINRIDIVTLLE [L10C]: the abundance fitness was -0.016 ± 0.089.

In the case of MAIVADHLGASWTELARELNFSVDEINQIRVENPNSLISQSFMLLKKWVTRDGKNATTDALTSVLTKINRIDIVTLLE [L10A], the abundance fitness was -0.064 ± 0.068.

Consider MAIVADHLGESWTELARELNFSVDEINQIRVENPNSLISQSFMLLKKWVTRDGKNATTDALTSVLTKINRIDIVTLLE [L10E], for which the abundance fitness came to 0.05 ± 0.071.

For the variant MAIVADHLGHSWTELARELNFSVDEINQIRVENPNSLISQSFMLLKKWVTRDGKNATTDALTSVLTKINRIDIVTLLE [L10H], the abundance fitness was 0.124 ± 0.079.

In the case of MAIVASHLGLSWTELARELNFSVDEINQIRVENPNSLISQSFMLLKKWVTRDGKNATTDALTSVLTKINRIDIVTLLE [D6S], the abundance fitness was -0.258 ± 0.063.

Take MAIVAYHLGLSWTELARELNFSVDEINQIRVENPNSLISQSFMLLKKWVTRDGKNATTDALTSVLTKINRIDIVTLLE [D6Y]: the abundance fitness was -0.342 ± 0.12.

On to MAIVARHLGLSWTELARELNFSVDEINQIRVENPNSLISQSFMLLKKWVTRDGKNATTDALTSVLTKINRIDIVTLLE [D6R], for which the abundance fitness is -0.163 ± 0.048.

For the variant MAIVACHLGLSWTELARELNFSVDEINQIRVENPNSLISQSFMLLKKWVTRDGKNATTDALTSVLTKINRIDIVTLLE [D6C], the abundance fitness was -0.418 ± 0.14.

Turning to MAIVAGHLGLSWTELARELNFSVDEINQIRVENPNSLISQSFMLLKKWVTRDGKNATTDALTSVLTKINRIDIVTLLE [D6G], the abundance fitness is -0.156 ± 0.05.

As to MAIVALHLGLSWTELARELNFSVDEINQIRVENPNSLISQSFMLLKKWVTRDGKNATTDALTSVLTKINRIDIVTLLE [D6L], the abundance fitness was -0.352 ± 0.063.

As for MAIVAPHLGLSWTELARELNFSVDEINQIRVENPNSLISQSFMLLKKWVTRDGKNATTDALTSVLTKINRIDIVTLLE [D6P], the abundance fitness was -0.238 ± 0.078.

As to MAIVAVHLGLSWTELARELNFSVDEINQIRVENPNSLISQSFMLLKKWVTRDGKNATTDALTSVLTKINRIDIVTLLE [D6V], the abundance fitness was -0.296 ± 0.07.

Turning to MAIVAIHLGLSWTELARELNFSVDEINQIRVENPNSLISQSFMLLKKWVTRDGKNATTDALTSVLTKINRIDIVTLLE [D6I], the abundance fitness is -0.755 ± 0.42.

For the variant MAIVAEHLGLSWTELARELNFSVDEINQIRVENPNSLISQSFMLLKKWVTRDGKNATTDALTSVLTKINRIDIVTLLE [D6E], the abundance fitness stood at 0.096 ± 0.069.

Take MAIVANHLGLSWTELARELNFSVDEINQIRVENPNSLISQSFMLLKKWVTRDGKNATTDALTSVLTKINRIDIVTLLE [D6N]: the abundance fitness is -0.067 ± 0.3.

Consider MAIVAAHLGLSWTELARELNFSVDEINQIRVENPNSLISQSFMLLKKWVTRDGKNATTDALTSVLTKINRIDIVTLLE [D6A], for which the abundance fitness is -0.25 ± 0.069.

As to MAIVAKHLGLSWTELARELNFSVDEINQIRVENPNSLISQSFMLLKKWVTRDGKNATTDALTSVLTKINRIDIVTLLE [D6K], the abundance fitness was 0.155 ± 0.038.

Regarding MAIVAFHLGLSWTELARELNFSVDEINQIRVENPNSLISQSFMLLKKWVTRDGKNATTDALTSVLTKINRIDIVTLLE [D6F], the abundance fitness was -0.658 ± 0.36.

Take MAIVAWHLGLSWTELARELNFSVDEINQIRVENPNSLISQSFMLLKKWVTRDGKNATTDALTSVLTKINRIDIVTLLE [D6W]: the abundance fitness was -0.517 ± 0.079.

Regarding MAIVAMHLGLSWTELARELNFSVDEINQIRVENPNSLISQSFMLLKKWVTRDGKNATTDALTSVLTKINRIDIVTLLE [D6M], the abundance fitness is -0.299 ± 0.17.

Regarding MAIVADHLELSWTELARELNFSVDEINQIRVENPNSLISQSFMLLKKWVTRDGKNATTDALTSVLTKINRIDIVTLLE [G9E], the abundance fitness is -0.273 ± 0.074.

As for MAIVADHLTLSWTELARELNFSVDEINQIRVENPNSLISQSFMLLKKWVTRDGKNATTDALTSVLTKINRIDIVTLLE [G9T], the abundance fitness is -1 ± 0.29.

As for MAIVADHLMLSWTELARELNFSVDEINQIRVENPNSLISQSFMLLKKWVTRDGKNATTDALTSVLTKINRIDIVTLLE [G9M], the abundance fitness was -0.244 ± 0.11.

For the variant MAIVADHLSLSWTELARELNFSVDEINQIRVENPNSLISQSFMLLKKWVTRDGKNATTDALTSVLTKINRIDIVTLLE [G9S], the abundance fitness is -0.535 ± 0.081.

Regarding MAIVADHLYLSWTELARELNFSVDEINQIRVENPNSLISQSFMLLKKWVTRDGKNATTDALTSVLTKINRIDIVTLLE [G9Y], the abundance fitness is -0.924 ± 0.39.

In the case of MAIVADHLHLSWTELARELNFSVDEINQIRVENPNSLISQSFMLLKKWVTRDGKNATTDALTSVLTKINRIDIVTLLE [G9H], the abundance fitness is -0.667 ± 0.37.

Regarding MAIVADHLNLSWTELARELNFSVDEINQIRVENPNSLISQSFMLLKKWVTRDGKNATTDALTSVLTKINRIDIVTLLE [G9N], the abundance fitness is -0.047 ± 0.16.

As for MAIVADHLCLSWTELARELNFSVDEINQIRVENPNSLISQSFMLLKKWVTRDGKNATTDALTSVLTKINRIDIVTLLE [G9C], the abundance fitness was -0.781 ± 0.14.

Regarding MAIVADHLVLSWTELARELNFSVDEINQIRVENPNSLISQSFMLLKKWVTRDGKNATTDALTSVLTKINRIDIVTLLE [G9V], the abundance fitness was -0.551 ± 0.11.

Turning to MAIVADHLQLSWTELARELNFSVDEINQIRVENPNSLISQSFMLLKKWVTRDGKNATTDALTSVLTKINRIDIVTLLE [G9Q], the abundance fitness was -0.39 ± 0.099.

For MAIVADHLDLSWTELARELNFSVDEINQIRVENPNSLISQSFMLLKKWVTRDGKNATTDALTSVLTKINRIDIVTLLE [G9D], the abundance fitness is -0.503 ± 0.17.

MAIVADHLWLSWTELARELNFSVDEINQIRVENPNSLISQSFMLLKKWVTRDGKNATTDALTSVLTKINRIDIVTLLE [G9W]: the abundance fitness was -0.786 ± 0.17.
